The DeepSol protein solubility set

Assay: soluble on expression in E. coli; label from the status in PepcDB or PDB records

| Sequence | soluble on expression in E. coli |
| --- | --- |
| MSKDVSIGWMYEGAKGNVHREDYLLGKKVDKNFEKYSDVVNAQKAEAIDSIVGTRAVFNSGQSTGLKTSSLQKDIIKSEDPFVAVKVREETKRREIMDNPLTKMRLQAALKSMMTSKAEKSKEKKSKKDKKKKKKKRSSSSSDESSDERVERKRRRSPSPKRRRRPSEKPRKRSRSPRRERPRSPKRSREESRKLSRKPSSSRSKSPRRSREDPRKVARKPSRSRSRSAERLRRKSRSPRRSREEPRKMSRSRSRSADKASSSRQFDSHIPRHLQQQRSRHDSSSGSESEHETRSSHRRRNSDDDERQDPRKKSYGLVEMRKRTAEEREEESRAPTKEYKLVKIPTGRGTGNTPREPRRALSEAEKAARLAEMQQDNVKWRDEIRERNVTKGRKEDDEEKEEADKNGYAPSFIRSQMREACDDMTVEKRLQSNKRGVQRAHGYMDRSFAKK | not soluble |
| MKLLHTADLHMDRSFEGLTGIPTALAKRLREANQQLLMNIVTVAIREAVDLVIFAGDTFHQSQTSISMQAQLMAALEQLKQAEIPVILTFGNHDYYKKDRYWFSFPDNVFLFEKEMVETLYFETKAGEQVAVSGFSYEHPWIDENKALEFPIKQAESDIHIGIYHGDTSRKAQQNYAPFTWKDLKATGYNYWALGHIHQPQIVSEQPLIVYPGTPQGHTKKEQSLQGVAVVTLSQNQATVQFEKVAEIDWTNEEVSLAQCRDTQSVLSYLETSLLTKWQAHQQQQLMALTLKETQHLDVTVVQAIVNGELLSYLQQQLLQKTQGDFFVYRLILQAEEPTKEPIYLAASPNLLTALEKTYLDPVIFEDTTKELLRYPEFAGIFSMDEQWRLESLRLAHEQINEDFTIQEDPL | not soluble |
| MGSSHHHHHHSSGRENLYFQGHMSHRDTLFSAPIARLGDWTFDERVAEVFPDMIQRSVPGYSNIISMIGMLAERFVQPGTQVYDLGCSLGAATLSVRRNIHHDNCKIIAIDNSPAMIERCRRHIDAYKAPTPVDVIEGDIRDIAIENASMVVLNFTLQFLEPSERQALLDKIYQGLNPGGALVLSEKFSFEDAKVGELLFNMHHDFKRANGYSELEISQKRSMLENVMLTDSVETHKARLHNAGFEHSELWFQCFNFGSLVALKAEDAA | soluble |
| DDFEDSLEYLEPLDHDAYIVRLNFTGENTTEPIISYMTKTHNIDVNILEADIKNTKNGSLGFLVIHIPHISEEHFKQFKHNLHEQHVNVEVLKHG | not soluble |
| MQKTFEEYERFFTTEKDMIPATIFTAPKKKFLQADSKFYEKRRVWILVISQHLVDNNLRSEDVRRFFHLESPDDDENNVDLGPSERKTATANDFDYLTTIGKGSFGRVYQVRHKETKKIYAMKILSKEHIRKKNEVKHVMAERNVLINNFKHPFLVSLHFSFQNKEKLYFVLDHLNGGELFSHLQREKHFSESRSRFYAAEIACALGYLHEKNIIYRDLKPENLLLDDKGYLVLTDFGLCKEDMQGSKTTSTFCGTPEYLAPEIILKKPYDKTVDWWCLGSVLYEMIFGLPPFYSKDHNEMYDKIINQPLRLKHNISVPCSELITGLLQKDRSKRLGHRNDFRDIRDHPFFLPVDWDKLLNRELKAPFIPKVKNAMDTSNISKEFVEIQIDPSSLAPQQLAVTHRDHDFENFTFVDTNRVLV | not soluble |
| MPERLQVYKCEVCGNIVEVLNGGIGELVCCNQDMKLMSENTVDAAKEKHVPVIEKIDGGYKVKVGAVAHPMEEKHYIQWIELLADDKCYTQFLKPGQAPEAVFLIEAAKVVAREYCNIHGHWKAEN | soluble |
| MGSSHHHHHHMRVDGREKTELRHIHIHTNYLKHPEGSVLIEVGDTKVICSATIEERVPPFMRGEGKGWVTAEYAMIPRATEQRTIRESSKGKVTGRTMEIQRLIGRALRAVVDLEALGERTVWIDCDVIQADGGTRTASITGAYVAMVLAFEKLLQAEKVSKIPVKDYLAATSVGIVEEQGVVLDLNYAEDSKADVDMNVIMTGKGQFVEVQGTGEEATFSRAQLNELLDAAEQGIFQLIDIQKEALGDIVSHIE | soluble |
| MGSDKIHHHHHHMAGKLFIVILTPVCNGNCLYCGGYDEGLMPPKIQYPLESLKKIADGNSVAFYGGEPLLEMEKMKEIMDSVKAEHFILQTNGLKLNRLEDEYIRRFSTILVSFDGRREVHDLYRGNYERVLENVLNVRRKGFEGELIARMVASQETDIYEDVMHILNLDCFTHVHWQIDAVWSSDGVWRDFERWVERYNAGVRKLVKFWASELRKGVLHGLVPFMGVATAIFKPFTHPPCSSGFESFAIATDGRILACPICPDLDWNEVGSLDEGIKRRLEILEPCLSCSYFRFCGGRCVFFNRERLWGDRGFRLVCSTVKNLVDSILACKHLILANKEKIMYPRFLNTTEIIP | not soluble |
| MSVPSSLSQSAINANSHGGPALSLPLPLHAAHNQLLNAKLQATAVGPKDLRSAMGEGGGPEPGPANAKWLKEGQNQLRRAATAHRDQNRNVTLTLAEEASQEPEMAPLGPKGLIHLYSELELSAHNAANRGLRGPGLIISTQEQGPDEGEEKAAGEAEEEEEDDDDEEEEEDLSSPPGLPEPLESVEAPPRPQALTDGPREHSKSASLLFGMRNSAASDEDSSWATLSQGSPSYGSPEDTDSFWNPNAFETDSDLPAGWMRVQDTSGTYYWHIPTGTTQWEPPGRASPSQGSSPQEESQLTWTGFAHGEGFEDGEFWKDEPSDEAPMELGLKEPEEGTLTFPAQSLSPEPLPQEEEKLPPRNTNPGIKCFAVRSLGWVEMTEEELAPGRSSVAVNNCIRQLSYHKNNLHDPMSGGWGEGKDLLLQLEDETLKLVEPQSQALLHAQPIISIRVWGVGRDSGRDFAYVARDKLTQMLKCHVFRCEAPAKNIATSLHEICSKIMAERRNARCLVNGLSLDHSKLVDVPFQVEFPAPKNELVQKFQVYYLGNVPVAKPVGVDVINGALESVLSSSSREQWTPSHVSVAPATLTILHQQTEAVLGECRVRFLSFLAVGRDVHTFAFIMAAGPASFCCHMFWCEPNAASLSEAVQAACMLRYQKCLDARSQASTSCLPAPPAESVARRVGWTVRRGVQSLWGSLKPKRLGAHTP | soluble |
| MSAEVQESSGKRGKGKQKKMTVRVDFTPMVDMNMLLITFFMLCTTLSKPQTMEISMPSNDKDITEQQKSMVKASQAITLLLGADNKLYYYEGEPNYKDYTSLKETSYGASGLRAVLLQKNAAAVNQVRALKQQKLDLKITDDEYKKKVSEIKSGKNTPTVIIKATDDASYMNLIDALDEMQICNIGKYVITDIAEADEFLIKNYDAKGELSQNLADK | not soluble |
| MGSDKIHHHHHHMTRILVLYFTRGGHTAKIANAIAEQLTLRGAKVDLVDINSAAATRINWSDYQLVALGACVLYGTYDKSVFQFIEQHVQALSFLPNSFFCVNVVARNPEKRIPENNKYLQKFITLSPWTPADLKIIAGKVDYPSWPWYDRLMIQLIMKITKGPTDPKAVIDYTDWEDVKVYADHLLTLVEVAEPA | not soluble |
| MMKRQLHRMRQLAQTGSLGRTPETAEFLGEDLLQVEQRLEPAKRAAHNIHKRLQACLQGQSGADMDKRVKKLPLMALSTTMAESFKELDPDSSMGKALEMSCAIQNQLARILAEFEMTLERDVLQPLSRLSEEELPAILKHKKSLQKLVSDWNTLKSRLSQATKNSGSSQGLGGSPGSHSHTTMANKVETLKEEEEELKRKVEQCRDEYLADLYHFVTKEDSYANYFIRLLEIQADYHRRSLSSLDTALAELRENHGQADHSPSMTATHFPRVYGVSLATHLQELGREIALPIEACVMMLLSEGMKKEGLFRLAAGASVLKRLKQTMASDPHSLEEFCSDPHAVAGALKSYLRELPEPLMTFDLYDDWMRAASLKEPGARLQALQEVCSRLPPENLSNLRYLMKFLARLAEEQEVNKMTPSNIAIVLGPNLLWPPEKEGDQAQLDAASVSSIQVVGVVEALIQSADTLFPGDINFNVSGLFSAVTLQDTVSDRLASEELPSTAVPTPATTPAPAPAPAPAPAPALASAATKERTESEVPPRPASPKVTRSPPETAAPVEDMARRSPRGATGR | soluble |
| MRIRSLEIEHMRAITHLVLKDLPSNGVIVISGENERGKSTIMEAIKLVLGEKHDTNKQSVKAIQPKGHDVGTRICLEADLGPVRFRVSKVFNKKKSCELTIFEPKPANYTGKEANSQLSGLLDAHLDHDLFSALFVEQGDITSMLSAAGISSVTQALGGATDHASNEDNALILTVEKEKDRYFTKSGATKKGGELGIAETAVAEAEQAVLAATQQKETLDRRVESVAGFQRDRDQAQQDLPNARDTLTTREQELKTAELAAQQLENASAQLKIAQDQERILQSDIDAREELRKEQSRLSEALQIRIQEELDLKEKTDSLSEAREKLRSQHEKARADAEKMRQRLEKLKESLRLDTLRTSYQELLTVSKQLEELRTVPEVTGAQLSAAEEANDRAKAAAYVVEAHAATMLINAAQPVTIQIDGEAVALNDTEWTTRITSELTAVIGDVSLTIEPGEQGEQLEQKRAETQETLRAALGDAKDIATLRLQREAWVDAEKELQSLNKRKNEIAMRFGDKADLERDIADAELQVAELDIQESDDLQQLIDDAEKEYLQYQQDADAYQKELGAWDSNDIQVRYATVKARVEAERENLDRCDQKIKAQEEQRPLEVLHSELHNVTAELKRQQDHLAELRETDNLQVAKDLYAGAAARVESLENTIRDCEANLKALQTQIDYAAGAAEQLDVALAQRDVALRVLEAVHHRAQAAMLLYTTLIRHRDIARQKYAAPFTQRLTEFAAPVFGKGVGFELGSDLSVVKRTMKEQTVGVDELSGGAQEQLSIVQRFAVADLASQGGETVPVFIDDALGSTDSNRLEMMATLFSRQGHNQQVFVLTCMPQRYDYVAGKHELRISDLMQ | not soluble |
| MIRAVFFDFVGTLLSVEGEAKTHLKIMEEVLGDYPLNPKTLLDEYEKLTREAFSNYAGKPYRPIRDIEEEVMRKLAEKYGFKYPENFWEIHLRMHQRYGELYPEVVEVLKSLKGKYHVGMITDSDTEYLMAHLDALGIKDLFDSITTSEEAGFFKPHPRIFELALKKAGVKGEEAVYVGDNPVKDCGGSKNLGMTSILLDRKGEKREFWDKCDFIVSDLREVIKIVDELNGQ | soluble |
| MTHETDKIVEIERQKIEVENERFAIEDECCSIKKRIDVLDGVAAQISSGPASMGFSGQCSSSIPASGSQPHLTRRHTVTGQEPNPLAMSQNQMSTGFFFNHESLDNLAKFLGYYGE | not soluble |
| MGSDKIHHHHHHMWQAISRLLEEHHGTADIQEHRELPGGEIHPAWYVRYGEHDVFVKCDSREMLAKFTAEADQLHLLSRSNTVRVPKVYGVGSSRDYSFLLLQYLPVKPLDAHSAWCLGEQLARLHQWSDQPQFGLDFDNDLSTTPQPNSWQRRWATFFAEQRIGWQLQLAAEKGMHFGHIETLIARVDERLAGHQPQPSLLHGDLWPDNCANSQDGGYLFDPACYWGDRECDLAMLPRYPALPAQIYDGYQSVWPLDKDFIDRQPIYQIYYLLNRANLFGGKNIVEAQQLIERQLLS | not soluble |
| MKKIMILVAVISFFSFSDDIKIDRAVKESITKDFDQDGKYSAYEKALRKAQESIYVTLPEHRGYWYSTLDKIKAEEEELLPDETARMRRR | not soluble |
| MSLFQMSYYYSGLGWDFIQHVDQTNGVLNVVSPDFFYIRKDGSLLLRSANPDVIKALHRRKLKVVPFLSNHWDQDLGRFALMNRVLLAKQISHAIEELDLDGVNIDIENLTEKDRNLFTDFIRLVRKSIPRHKEVSVAVAANPFGWTKGWHGSYDYEYLAKYADYLMVMAYDESRLAGPTASVGWVEKSIQYVLTQKISPQKLVLGLPFYGRCWMEGQSASQAIPLYLVVSKKAEGHHHHHH | not soluble |
